Experimental data as given in publication PMC4434323.

How the values were obtained:
[1] = target: T1, die-1 (C18D1.1) (Caenorhabditis elegans) (UniProt A0A131MCR4)
T1 sequence: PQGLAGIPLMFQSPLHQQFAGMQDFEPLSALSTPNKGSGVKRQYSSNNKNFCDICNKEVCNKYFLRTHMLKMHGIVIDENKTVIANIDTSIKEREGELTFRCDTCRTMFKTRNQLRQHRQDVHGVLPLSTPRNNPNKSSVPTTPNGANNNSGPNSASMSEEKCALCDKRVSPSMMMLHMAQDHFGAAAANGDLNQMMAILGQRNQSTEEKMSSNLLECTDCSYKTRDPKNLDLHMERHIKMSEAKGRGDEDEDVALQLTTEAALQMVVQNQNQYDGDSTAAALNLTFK

[2] = target: T2, tbx-39 (Y73F8A.16) (Caenorhabditis elegans) (UniProt Q9NA56)
T2 sequence: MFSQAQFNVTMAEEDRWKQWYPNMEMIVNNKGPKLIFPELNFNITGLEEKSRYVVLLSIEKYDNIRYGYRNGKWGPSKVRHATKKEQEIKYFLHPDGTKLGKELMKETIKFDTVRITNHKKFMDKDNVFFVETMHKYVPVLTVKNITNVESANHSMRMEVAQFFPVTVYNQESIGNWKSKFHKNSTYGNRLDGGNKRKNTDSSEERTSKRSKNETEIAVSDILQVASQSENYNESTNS

[3] = target: ZC328.2 (ZC328.2) (Caenorhabditis elegans) (UniProt O02050)
Chain of ZC328.2 (ZC328.2) (Caenorhabditis elegans) (O02050 entry or part of it): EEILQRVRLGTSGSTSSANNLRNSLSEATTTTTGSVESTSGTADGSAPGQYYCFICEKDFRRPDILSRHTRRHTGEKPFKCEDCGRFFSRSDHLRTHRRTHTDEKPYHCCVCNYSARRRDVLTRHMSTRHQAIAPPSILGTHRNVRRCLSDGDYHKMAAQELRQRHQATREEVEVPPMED

[4] = target: egrh-1 (C27C12.2) (Caenorhabditis elegans) (UniProt Q18250)
Chain of egrh-1 (C27C12.2) (Caenorhabditis elegans) (Q18250 324-461): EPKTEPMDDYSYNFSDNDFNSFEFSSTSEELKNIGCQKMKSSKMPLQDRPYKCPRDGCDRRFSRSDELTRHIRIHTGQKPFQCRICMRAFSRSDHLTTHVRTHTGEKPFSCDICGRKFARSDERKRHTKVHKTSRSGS

[5] = target: T3, B0310.2 (B0310.2) (Caenorhabditis elegans) (UniProt Q10938)
T3 sequence: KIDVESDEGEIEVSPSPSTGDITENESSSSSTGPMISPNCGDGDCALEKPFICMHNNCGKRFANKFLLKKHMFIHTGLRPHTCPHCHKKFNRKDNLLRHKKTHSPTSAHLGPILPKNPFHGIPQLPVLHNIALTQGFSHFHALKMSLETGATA

[6] = target: T4, skn-1 (T19E7.2) (Caenorhabditis elegans) (UniProt P34707)
T4 sequence: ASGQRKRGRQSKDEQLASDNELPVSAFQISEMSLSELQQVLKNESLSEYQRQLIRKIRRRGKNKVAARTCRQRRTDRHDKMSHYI

[7] = target: T5, zip-3 (W07G1.3) (Caenorhabditis elegans) (UniProt Q9XUK2)
T5 sequence: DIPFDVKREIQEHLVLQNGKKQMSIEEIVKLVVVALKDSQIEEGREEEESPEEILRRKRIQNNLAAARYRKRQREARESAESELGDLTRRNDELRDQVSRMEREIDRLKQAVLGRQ

[8] = target: T6, ztf-19 (T27B1.2) (Caenorhabditis elegans) (UniProt Q22829)
T6 sequence: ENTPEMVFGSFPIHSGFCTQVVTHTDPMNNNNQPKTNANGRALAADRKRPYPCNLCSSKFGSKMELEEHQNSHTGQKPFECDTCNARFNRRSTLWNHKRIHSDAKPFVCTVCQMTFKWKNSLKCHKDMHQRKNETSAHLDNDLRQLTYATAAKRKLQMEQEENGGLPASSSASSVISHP

[9] = target: T7, ham-2 (C07A12.1) (Caenorhabditis elegans) (UniProt H2KYH4)
T7 sequence: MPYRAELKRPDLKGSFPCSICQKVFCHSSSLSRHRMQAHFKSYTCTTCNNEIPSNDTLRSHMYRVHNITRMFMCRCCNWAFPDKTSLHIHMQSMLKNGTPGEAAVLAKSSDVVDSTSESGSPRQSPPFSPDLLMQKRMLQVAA

[10] = target: T8, ztf-29 (Y66D12A.12) (Caenorhabditis elegans) (UniProt Q95Q03)
T8 sequence: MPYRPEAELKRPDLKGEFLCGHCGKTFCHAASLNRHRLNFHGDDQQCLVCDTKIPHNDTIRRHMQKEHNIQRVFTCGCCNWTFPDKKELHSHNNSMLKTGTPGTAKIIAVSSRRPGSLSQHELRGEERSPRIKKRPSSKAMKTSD

[11] = target: T9, atf-5 (T04C10.4) (Caenorhabditis elegans) (UniProt Q22156)
T9 sequence: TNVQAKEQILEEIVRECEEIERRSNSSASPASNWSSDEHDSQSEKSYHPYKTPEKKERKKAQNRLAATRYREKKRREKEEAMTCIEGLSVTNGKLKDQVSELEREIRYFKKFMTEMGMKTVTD

## ATTTTAAA (double strand) [8-mer ATTTTAAA]
[1]
  binding signal (PBM E-score (-0.5 to 0.5)): 0.496

## CCAAGTTA (double strand) [8-mer CCAAGTTA]
[2]
  binding signal (PBM E-score (-0.5 to 0.5)): 0.495

## CCAAGTTC (double strand) [8-mer CCAAGTTC]
[2]
  binding signal (PBM E-score (-0.5 to 0.5)): 0.477

## CCCACGCG (double strand) [8-mer CCCACGCG]
[3]
  binding signal (PBM E-score (-0.5 to 0.5)): 0.49
[4]
  binding signal (PBM E-score (-0.5 to 0.5)): 0.486

## CCCCCACA (double strand) [8-mer CCCCCACA]
[4]
  binding signal (PBM E-score (-0.5 to 0.5)): 0.489

## CCCCCGCG (double strand) [8-mer CCCCCGCG]
[3]
  binding signal (PBM E-score (-0.5 to 0.5)): 0.488
[4]
  binding signal (PBM E-score (-0.5 to 0.5)): 0.485

## CCTCAATC (double strand) [8-mer CCTCAATC]
[5]
  binding signal (PBM E-score (-0.5 to 0.5)): 0.477

## CGTCATCA (double strand) [8-mer CGTCATCA]
[6]
  binding signal (PBM E-score (-0.5 to 0.5)): 0.492
[7]
  binding signal (PBM E-score (-0.5 to 0.5)): 0.489

## CTAAGTTA (double strand) [8-mer CTAAGTTA]
[2]
  binding signal (PBM E-score (-0.5 to 0.5)): 0.48

## CTACCAAG (double strand) [8-mer CTACCAAG]
[2]
  binding signal (PBM E-score (-0.5 to 0.5)): 0.473

## CTACCTCA (double strand) [8-mer CTACCTCA]
[5]
  binding signal (PBM E-score (-0.5 to 0.5)): 0.484

## CTTGGCAC (double strand) [8-mer CTTGGCAC]
[2]
  binding signal (PBM E-score (-0.5 to 0.5)): 0.477

## CTTTTAAA (double strand) [8-mer CTTTTAAA]
[1]
  binding signal (PBM E-score (-0.5 to 0.5)): 0.47

## GAACCTCA (double strand) [8-mer GAACCTCA]
[5]
  binding signal (PBM E-score (-0.5 to 0.5)): 0.48

## GATGACGC (double strand) [8-mer GATGACGC]
[7]
  binding signal (PBM E-score (-0.5 to 0.5)): 0.493

## GATTTAAA (double strand) [8-mer GATTTAAA]
[1]
  binding signal (PBM E-score (-0.5 to 0.5)): 0.477

## GCCCCCAC (double strand) [8-mer GCCCCCAC]
[4]
  binding signal (PBM E-score (-0.5 to 0.5)): 0.486

## GGTTTAAA (double strand) [8-mer GGTTTAAA]
[1]
  binding signal (PBM E-score (-0.5 to 0.5)): 0.484

## GTGAGGGA (double strand) [8-mer GTGAGGGA]
[5]
  binding signal (PBM E-score (-0.5 to 0.5)): 0.478

## GTGAGGTA (double strand) [8-mer GTGAGGTA]
[5]
  binding signal (PBM E-score (-0.5 to 0.5)): 0.485

## GTTTAAAA (double strand) [8-mer GTTTAAAA]
[1]
  binding signal (PBM E-score (-0.5 to 0.5)): 0.471

## GTTTAAAC (double strand) [8-mer GTTTAAAC]
[1]
  binding signal (PBM E-score (-0.5 to 0.5)): 0.481
[8]
  binding signal (PBM E-score (-0.5 to 0.5)): 0.494

## GTTTTAAA (double strand) [8-mer GTTTTAAA]
[1]
  binding signal (PBM E-score (-0.5 to 0.5)): 0.478

## TAAGCTTA (double strand) [8-mer TAAGCTTA]
[9]
  binding signal (PBM E-score (-0.5 to 0.5)): 0.497
[10]
  binding signal (PBM E-score (-0.5 to 0.5)): 0.496

## TACCTCAA (double strand) [8-mer TACCTCAA]
[5]
  binding signal (PBM E-score (-0.5 to 0.5)): 0.495

## TGACATCA (double strand) [8-mer TGACATCA]
[11]
  binding signal (PBM E-score (-0.5 to 0.5)): 0.468
[7]
  binding signal (PBM E-score (-0.5 to 0.5)): 0.49

## TGAGGTAA (double strand) [8-mer TGAGGTAA]
[5]
  binding signal (PBM E-score (-0.5 to 0.5)): 0.49

## TGCTAGCA (double strand) [8-mer TGCTAGCA]
[9]
  binding signal (PBM E-score (-0.5 to 0.5)): 0.48

## TGTACCAA (double strand) [8-mer TGTACCAA]
[2]
  binding signal (PBM E-score (-0.5 to 0.5)): 0.485

## TTAGCTAA (double strand) [8-mer TTAGCTAA]
[9]
  binding signal (PBM E-score (-0.5 to 0.5)): 0.483

## TTTAAAAA (double strand) [8-mer TTTAAAAA]
[1]
  binding signal (PBM E-score (-0.5 to 0.5)): 0.48

## TTTTAAAA (double strand) [8-mer TTTTAAAA]
[1]
  binding signal (PBM E-score (-0.5 to 0.5)): 0.494
